For this assay, the target named is CY5-CAS9:sgRNA complex (1:1 molar ratio) (S. pyogenes) (UniProt Q99ZW2). Kind of assay: fluorescence titration of 5 nM CY5-CAS9:sgRNA (1:1) with increasing peptide, quadratic fit.

As a reminder, the Kd is a measure of binding affinity in units of concentration.

CADY (peptide): the Kd was found to be 0.021 µM.
